The text below walks through data of patent US7309594.

In this series the test system is Protein Kinase Bα/AKT1 catalytic domain (SEQ ID NO:3, tag removed) before PDK1 treatment.
Sequence of Protein Kinase Bα/AKT1 catalytic domain (SEQ ID NO:3, tag removed) before PDK1 treatment (chain, as listed by the source): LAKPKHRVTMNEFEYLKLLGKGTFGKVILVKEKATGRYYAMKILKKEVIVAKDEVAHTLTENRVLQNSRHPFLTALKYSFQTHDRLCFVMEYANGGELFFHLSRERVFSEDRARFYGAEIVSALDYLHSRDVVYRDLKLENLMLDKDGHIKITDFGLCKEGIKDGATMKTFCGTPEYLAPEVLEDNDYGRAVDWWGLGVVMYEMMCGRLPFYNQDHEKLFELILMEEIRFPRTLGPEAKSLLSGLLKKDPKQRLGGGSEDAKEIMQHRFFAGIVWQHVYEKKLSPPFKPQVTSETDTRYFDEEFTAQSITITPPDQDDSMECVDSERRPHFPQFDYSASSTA

In the case of PDK1 kinase, the “phosphorylation of AKT1 (mass spectrometry)” value was “Following 120 minute incubation with PDK1, AKT1 was converted into a mixture of mono and double phosphorylated proteins”.
